Results taken from article doi:10.1101/071720.

Biological target: recombinant pscC protein of Pseudomonas aeruginosa (PA01), His-GST fusion (Pseudomonas aeruginosa PA01)
Assay: SEC

Substance: recombinant pscC protein of Pseudomonas aeruginosa (PA01), His-GST fusion (domain or fragment)
- stoichiometry N: 2
